Measurements from patent US20050118229A1, “Implantable drug delivery device for sustained release of therapeutic agent” (iMEDD, Inc., priority 2003, published 2005).

Assays:
[1] = Hydration of lysozyme particles through planar microporous membrane (dual sub-chamber device of FIG. 1); assay type: physicochemical
From the text: The data presented in FIG. 3 is illustrative of zero-order hydration of the surrogate molecule lysozyme using the planar version of the microporous membrane shown in FIG. 1. In this experiment, three identical acrylic chambers were used, each chamber including two subchambers separated by a planar microporous membrane. The microporous membrane was a Whatman 1PS Phase Separator having a diameter of […] (area=113 mm^2).
The lower portion of the chamber (i.e., the lower sub-chamber) was filled with 2.7 milliliters of the water-immiscible solvent, perfluorodecalin. Suspended in this solvent were 20 mg of solid lysozyme particles having an average particle size of 90 micrometers. The range of particle sizes was 75 to 105 micrometers. […] The upper portion of the chamber (i.e., the upper sub-chamber) contained 0.3 milliliters of phosphate buffered saline solution. A stirring bar was placed in the lower sub-chamber of each device to agitate the solvent at ambient temperature during the fifty-two day test period. After thirty-seven days, stirring was stopped to determine whether or not agitation had any effect on the hydration rate. The buffer solution in the upper sub-chamber of each device was removed each day and replaced with a fresh supply of solution. The lysozyme content of the upper sub-chamber samples was analyzed periodically to determine the quantity of lysozyme material that had dissolved in a one-day time period. The daily mass of lysozyme that was present in the upper sub-chamber was added to the sum of the previous days, thus the data in FIG. 3 represents the total mass of hydrated lysozyme.
The effect of longer release periods is substantially equivalent to determining the release rate with decreasing amounts of lysozyme present in the device enclosure. To determine release variations over longer periods of time, additional planar-membrane, dual-chamber experiments were conducted using different initial amounts of lysozyme loaded, i.e., suspended, in the perfluorodecalin used to fill the lower sub-chamber. […] These average hydration rates are plotted in FIG. 5 as a function of the amount of mass loaded (100%=20 mg).

[2] = Hydration of lysozyme particles from cylindrical capsule-like microporous membrane packet (FIG. 2); assay type: physicochemical
Protocol: FIG. 6 provides hydration results for a device utilizing the three-dimensional capsule-like embodiment of the microporous membrane (see FIG. 2). For this experiment, a section of Whatman 1PS Phase Separator membrane was formed into a cylinder and sealed lengthwise and at both ends. The resulting cylinder was 10 mm in length and 4 mm in diameter (125 mm^2 membrane area). The cylinder was filled with approximately 1.4 mg of solid lysozyme having an average particle size of 90 micrometers combined with approximately 125 μl of the water-immiscible solvent perfluorodecalin,
The particle-filled cylinder described above was placed in a well containing 1.5 milliliters of phosphate buffered saline. A series of 70 μl samples were removed from the well at various time intervals. These samples were analyzed, and the results in FIG. 6 are the summation of mass hydrated as a function of time. Approximately 2.6 μg of lysozyme per day (i.e., 0.021 μg/mm^2) was hydrated after a nine-day delay. This observed rate is a factor of four less than the hydration rate observed in the previously discussed planar membrane experiments; however, because the entire membrane area was not active for the cylinder-shaped membrane, the release per unit area data is in reasonable agreement bwtween the two experiments. Thus, the data shown in FIGS. 4-6 provide a clear indication that the devices shown in FIGS. 1 and 2 are capable of providing the long-term zero-order release desired for an implantable drug-delivery device.

Substance: lysozyme
- hydration rate relative to its original value ([1]; 2 mg loaded (10% of 20 mg)): 83%
- hydration rate ([1]; 2 mg suspended lysozyme, planar membrane): 7.7 micrograms/day
- hydration rate ([1]; 5 mg suspended lysozyme, planar membrane): 8.9 micrograms/day
- lysozyme mass hydrated ([1]; 20 mg loaded, over the fifty-two day testing period): 2%
- initial delay before hydration ([1]; 20 mg lysozyme loaded, planar membrane): eight to fourteen
- average hydration rate per membrane area ([1]; 20 mg lysozyme loaded, planar membrane area 113 mm^2): 0.082 ug/day/mm^2
- average hydration rate ([1]; 20 mg solid lysozyme particles loaded in perfluorodecalin, planar Whatman 1PS membrane, PBS, ambient temperature, 52 day test): 9.3 micrograms per day
- decrease of hydration rate ([1]; during the time the mass of lysozyme decreases by 80%): 4%
- lysozyme hydrated per day ([2]; approx. 1.4 mg lysozyme in approx. 125 μl perfluorodecalin, cylinder 125 mm^2 Whatman 1PS, 1.5 ml PBS): Approximately 2.6 μg per day
- factor by which rate is less than the planar membrane hydration rate ([2]; cylinder versus planar membrane experiments): four
- delay before hydration ([2]; cylinder-shaped membrane): nine
- lysozyme hydrated per membrane area ([2]; cylinder-shaped membrane, 125 mm^2 membrane area): ~0.021 μg/mm^2
